The term stoichiometry N denotes a count of units in the complex or per binding partner.

The record followed here is doi:10.1101/487769.

Values joined by “and” are separate entries in the source; they are usually repeats but may differ in a detail not shown here. Equal values may be shown once.

This test concerns the target Hfq-FLAG (Yersinia pestis Hfq with C-terminal 3 x Flag tag) (Yersinia pestis). The test is described as follows: native gel or EMSA. On the technique in general: Mobility shift assays separate free from complexed probe on a gel.

Turning to “Hfq-FLAG (Yersinia pestis Hfq with C-terminal 3 x Flag tag) (natural protein)”, the stoichiometry N is 3 and 6.
